Source: US20100311648A1 (AstraZeneca / MedImmune, published 2010)
Values belong to the binder of their own block, whether it stands above or below them. Positions of bridges follow the written chain, without caps; N, C: chain ends. Non-standard residues stand in square brackets, D forms with d. dPhe(3,4,5-F3) = N[C@H](Cc1cc(F)c(F)c(F)c1)C(=O)O; dPhe(4-CN) = N#Cc1ccc(C[C@@H](N)C(=O)O)cc1; dPhe(3-Cl) = N[C@H](Cc1cccc(Cl)c1)C(=O)O; dPhe(2-Cl) = N[C@H](Cc1ccccc1Cl)C(=O)O; dPhe(2-Me) = Cc1ccccc1C[C@@H](N)C(=O)O; dPhe(4-F) = N[C@H](Cc1ccc(F)cc1)C(=O)O; dPhe(2-F) = N[C@H](Cc1ccccc1F)C(=O)O; Orn = NCCC[C@H](N)C(=O)O

Legend:
[1] = target: T1, human melanocortin-4 receptor (human, UniProt P32245 1-332); assay: cell-based or functional assay
T1 sequence (P32245 whole entry): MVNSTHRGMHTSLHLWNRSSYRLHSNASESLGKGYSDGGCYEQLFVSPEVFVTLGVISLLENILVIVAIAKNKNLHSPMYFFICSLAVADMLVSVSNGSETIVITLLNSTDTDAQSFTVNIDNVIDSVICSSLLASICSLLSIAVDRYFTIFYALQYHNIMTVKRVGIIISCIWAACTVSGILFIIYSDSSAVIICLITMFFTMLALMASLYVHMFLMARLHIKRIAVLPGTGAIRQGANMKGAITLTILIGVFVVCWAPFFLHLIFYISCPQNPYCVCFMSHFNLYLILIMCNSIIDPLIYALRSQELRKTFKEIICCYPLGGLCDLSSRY

[2] = target: T1, human melanocortin-4 receptor; assay: [I125]-NDP-α-MSH competition, hMC4-R HEK-293 membranes
Experimental: A competitive inhibition binding assay was performed for exemplified peptides according to the invention using membrane homogenates prepared from HEK-293 cells that express recombinant hMC4-R, hMC3-R, or hMC5-R, and from B-16 mouse melanoma cells (containing endogenous MC1-R). In some instances, HEK-293 cells that express recombinant hMC1-R were employed. Assays were performed in 96 well GF/B Millipore multiscreen filtration plates (MAFB NOB10) pre-coated with 0.5% bovine serum albumin (Fraction V). […] After incubation for 60 minutes at 37° C., the assay mixture was filtered and the membranes washed three times with ice-cold buffer. Filters were dried and counted in a gamma counter for bound radioactivity. […] Each assay was conducted in triplicate and the actual mean values are described, with results less than 0% reported as 0%. Ki values for test peptides of the present invention were determined using Graph-Pad Prism® curve-fitting software.

EC50, cAMP, 0.1 ng/mL Doxycycline [1]: 0.8 nM
EC50, cAMP, 10 ng/mL Doxycycline [1]: 0.1 nM
Intrinsic Activity, cAMP, 0.1 ng/mL Doxycycline [1]: 49%
Intrinsic Activity, cAMP, 10 ng/mL Doxycycline [1]: 100%
B1: Ac-Arg-cyclo(Glu-Gln-D-Phe(3,4,5-triF)-Arg-Trp-Orn)-NH2 (peptide)
peptide: Ac-REQ[dPhe(3,4,5-F3)]RW[Orn]-NH2
modifications: lactam 2-7
SMILES: CC(=O)N[C@@H](CCCNC(=N)N)C(=O)N[C@H]1CCC(=O)NCCC[C@@H](C(N)=O)NC(=O)[C@H](Cc2c[nH]c3ccccc23)NC(=O)[C@H](CCCNC(=N)N)NC(=O)[C@@H](Cc2cc(F)c(F)c(F)c2)NC(=O)[C@H](CCC(N)=O)NC1=O

EC50, cAMP, 10 ng/mL Doxycycline [1]: 0.235 nM
Intrinsic Activity, cAMP, 0.1 ng/mL Doxycycline [1]: 24%
Intrinsic Activity, cAMP, 10 ng/mL Doxycycline [1]: 100%
Binder: Ac-R[Orn]N[dPhe(3,4,5-F3)]RWE-NH2 (lactam 2-7) [Ac-Arg-cyclo(Orn-Asn-D-Phe(3,4,5-triF)-Arg-Trp-Glu)-NH2]

EC50, cAMP, 0.1 ng/mL Doxycycline [1]: 0.4 nM
EC50, cAMP, 10 ng/mL Doxycycline [1]: 0.1 nM
Intrinsic Activity, cAMP, 0.1 ng/mL Doxycycline [1]: 64%
Ki [2]: 3 nM
Binder: Ac-R[Orn]N[dPhe(4-F)]RWE-NH2 (lactam 2-7, also called No. 70) [Ac-Arg-cyclo(Orn-Asn-D-Phe(4-F)-Arg-Trp-Glu)-NH2]

EC50, cAMP, 0.1 ng/mL Doxycycline [1]: 0.24 nM
EC50, cAMP, 10 ng/mL Doxycycline [1]: 0.09 nM
Intrinsic Activity, cAMP, 0.1 ng/mL Doxycycline [1]: 32%
Intrinsic Activity, cAMP, 10 ng/mL Doxycycline [1]: 92%
Ki [2]: 0.9 nM
Binder: Ac-R[Orn]Q[dPhe(4-CN)]RWE-NH2 (lactam 2-7, also called No. 94) [Ac-Arg-cyclo(Orn-Gln-D-Phe(4-CN)-Arg-Trp-Glu)-NH2]

EC50, cAMP, 0.1 ng/mL Doxycycline [1]: 0.575 nM
EC50, cAMP, 10 ng/mL Doxycycline [1]: 0.053 nM
Intrinsic Activity, cAMP, 0.1 ng/mL Doxycycline [1]: 81%
Intrinsic Activity, cAMP, 10 ng/mL Doxycycline [1]: 104%
Binder: Ac-R[Orn]Q[dPhe(2-Me)]RWE-NH2 (lactam 2-7) [Ac-Arg-cyclo(Orn-Gln-D-Phe(2-Me)-Arg-Trp-Glu)-NH2]

EC50, cAMP, 0.1 ng/mL Doxycycline [1]: 3 nM
EC50, cAMP, 10 ng/mL Doxycycline [1]: 0.15 nM
Intrinsic Activity, cAMP, 0.1 ng/mL Doxycycline [1]: 35%
Intrinsic Activity, cAMP, 10 ng/mL Doxycycline [1]: 94%
Ki [2]: 7 nM
B2: Ac-Arg-cyclo(Orn-Pro-D-Phe(2-F)-Arg-Trp-Glu)-NH2 (peptide)
peptide: Ac-R[Orn]P[dPhe(2-F)]RWE-NH2
modifications: lactam 2-7
SMILES: CC(=O)N[C@@H](CCCNC(=N)N)C(=O)N[C@H]1CCCNC(=O)CC[C@@H](C(N)=O)NC(=O)[C@H](Cc2c[nH]c3ccccc23)NC(=O)[C@H](CCCNC(=N)N)NC(=O)[C@@H](Cc2ccccc2F)NC(=O)[C@@H]2CCCN2C1=O

EC50, cAMP, 0.1 ng/mL Doxycycline [1]: 0.39 nM
EC50, cAMP, 10 ng/mL Doxycycline [1]: 0.07 nM
Intrinsic Activity, cAMP, 0.1 ng/mL Doxycycline [1]: 83%
Intrinsic Activity, cAMP, 10 ng/mL Doxycycline [1]: 101%
Ki [2]: 4 nM
Binder: Ac-R[Orn]Q[dPhe(2-Cl)]RWE-NH2 (lactam 2-7) [Ac-Arg-cyclo(Orn-Gln-D-Phe(2-Cl)-Arg-Trp-Glu)-NH2]

EC50, cAMP, 0.1 ng/mL Doxycycline [1]: 0.45 nM
EC50, cAMP, 10 ng/mL Doxycycline [1]: 0.14 nM
Intrinsic Activity, cAMP, 0.1 ng/mL Doxycycline [1]: 47%
Intrinsic Activity, cAMP, 10 ng/mL Doxycycline [1]: 100%
Binder: Ac-R[Orn]Q[dPhe(3,4,5-F3)]RWE-NH2 (lactam 2-7) [Ac-Arg-cyclo(Orn-Gln-D-Phe(3,4,5-triF)-Arg-Trp-Glu)-NH2]

EC50, cAMP, 10 ng/mL Doxycycline [1]: 0.14 nM
Intrinsic Activity, cAMP, 0.1 ng/mL Doxycycline [1]: 32%
Intrinsic Activity, cAMP, 10 ng/mL Doxycycline [1]: 94%
Ki [2]: 0.5 nM
B3: Ac-Arg-cyclo(Glu-Arg-D-Phe(3-Cl)-Arg-Trp-Orn)-NH2 (peptide)
peptide: Ac-RER[dPhe(3-Cl)]RW[Orn]-NH2
modifications: lactam 2-7
SMILES: CC(=O)N[C@@H](CCCNC(=N)N)C(=O)N[C@H]1CCC(=O)NCCC[C@@H](C(N)=O)NC(=O)[C@H](Cc2c[nH]c3ccccc23)NC(=O)[C@H](CCCNC(=N)N)NC(=O)[C@@H](Cc2cccc(Cl)c2)NC(=O)[C@H](CCCNC(=N)N)NC1=O
notes: also called No. 99

EC50, cAMP, 0.1 ng/mL Doxycycline [1]: 15 nM
EC50, cAMP, 10 ng/mL Doxycycline [1]: 0.707 nM
Intrinsic Activity, cAMP, 0.1 ng/mL Doxycycline [1]: 36%
Intrinsic Activity, cAMP, 10 ng/mL Doxycycline [1]: 94%
Ki [2]: 64 nM
Binder: Ac-REN[dPhe(4-CN)]RW[Orn]-OH (lactam 2-7, also called No. 85) [Ac-Arg-cyclo(Glu-Asn-D-Phe(4-CN)-Arg-Trp-Orn)-OH]

EC50, cAMP, 0.1 ng/mL Doxycycline [1]: 18 nM
EC50, cAMP, 10 ng/mL Doxycycline [1]: 0.543 nM
Intrinsic Activity, cAMP, 0.1 ng/mL Doxycycline [1]: 34%
Intrinsic Activity, cAMP, 10 ng/mL Doxycycline [1]: 96%
Ki [2]: 11 nM
B4: Ac-Arg-cyclo(Glu-Thr-D-Phe(2-Cl)-Arg-Trp-Orn)-NH2 (peptide)
peptide: Ac-RET[dPhe(2-Cl)]RW[Orn]-NH2
modifications: lactam 2-7
SMILES: CC(=O)N[C@@H](CCCNC(=N)N)C(=O)N[C@H]1CCC(=O)NCCC[C@@H](C(N)=O)NC(=O)[C@H](Cc2c[nH]c3ccccc23)NC(=O)[C@H](CCCNC(=N)N)NC(=O)[C@@H](Cc2ccccc2Cl)NC(=O)[C@H]([C@@H](C)O)NC1=O
notes: also called No. 32

EC50, cAMP, 10 ng/mL Doxycycline [1]: 1 nM
Intrinsic Activity, cAMP, 0.1 ng/mL Doxycycline [1]: 6%
Intrinsic Activity, cAMP, 10 ng/mL Doxycycline [1]: 84%
Ki [2]: 10 nM
Binder: Ac-RES[dPhe(3-Cl)]RW[Orn]-NH2 (lactam 2-7, also called No. 35) [Ac-Arg-cyclo(Glu-Ser-D-Phe(3-Cl)-Arg-Trp-Orn)-NH2]
